From patent US20150017665A1, “Peptides and Methods for Detecting MPO-ANCA” (The University of North Carolina at Chapel Hill, priority 2012, published 2015)

B1: full length CP: full length ceruloplasmin, 151 kD, purchased (Enzo Life Science) (protein)
chain: KEKHYYIGIIETTWDYASDHGEKKLISVDTEHSNIYLQNGPDRIGRLYKKALYLQYTDETFRTTIEKPVWLGFLGPIIKAETGDKVYVHLKNLASRPYTFHSHGITYYKEHEGAIYPDNTTDFQRADDKVYPGEQYTYMLLATEEQSPGEGDGNCVTRIYHSHIDAPKDIASGLIGPLIICKKDSLDKEKEKHIDREFVVMFSVVDENFSWYLEDNIKTYCSEPEKVDKDNEDFQESNRMYSVNGYTFGSLPGLSMCAEDRVKWYLFGMGNEVDVHAAFFHGQALTNKNYRIDTINLFPATLFDAYMVAQNPGEWMLSCQNLNHLKAGLQAFFQVQECNKSSSKDNIRGKHVRHYYIAAEEIIWNYAPSGIDIFTKENLTAPGSDSAVFFEQGTTRIGGSYKKLVYREYTDASFTNRKERGPEEEHLGILGPVIWAEVGDTIRVTFHNKGAYPLSIEPIGVRFNKNNEGTYYSPNYNPQSRSVPPSASHVAPTETFTYEWTVPKEVGPTNADPVCLAKMYYSAVEPTKDIFTGLIGPMKICKKGSLHANGRQKDVDKEFYLFPTVFDENESLLLEDNIRMFTTAPDQVDKEDEDFQESNKMHSMNGFMYGNQPGLTMCKGDSVVWYLFSAGNEADVHGIYFSGNTYLWRGERRDTANLFPQTSLTLHMWPDTEGTFNVECLTTDHYTGGMKQKYTVNQCRRQSEDSTFYLGERTYYIAAVEVEWDYSPQREWEKELHHLQEQNVSNAFLDKGEFYIGSKYKKVVYRQYTDSTFRVPVERKAEEEHLGILGPQLHADVGDKVKIIFKNMATRPYSIHAHGVQTESSTVTPTLPGETLTYVWKIPERSGAGTEDSACIPWAYYSTVDQVKDLYSGLIGPLIVCRRPYLKVFNPRRKLEFALLFLVFDENESWYLDDNIKTYSDHPEKVNKDDEEFIESNKMHAINGRMFGNLQGLTMHVGDEVNWYLMGMGNEIDLHTVHFHGHSFQYKHRGVYSSDVFDIFPGTYQTLEMFPRTPGIWLLHCHVTDHIHAGMETTYTVLQNEDTKSG

Key:
mice = conditions: Ooi et al. 2012; cited from earlier work
[1] = tested on: anti-MPO^447-459 autoantibody; test: Epitope masking ELISA with ceruloplasmin and its fragments; type: binding, human; conditions: ELISA
Source text: (§1) Serum proteins that bound immobilized MPO peptide aa447-459 were eluted and sequenced for identification. […] Sequenced on a 4800 MALDI TOF-TOF, the protein was identified as ceruloplasmin (CP), and confirmed by western blot analysis probed with a rabbit anti-human anti-CP polyclonal antibody (Abeam). Native CP was purchased (Enzo Life Science) and proteolytically digested in vitro by plasmin (Haemtech).
(§2) To isolate the putative serum factor, immobilized MPO aa447-459 peptide was used as bait to fish-out host proteins with binding capacity. […] However, the CP bound to aa447-459 was primarily a 50 kD protein on sodium dodecyl sulfate polyacrylamide gel electrophoresis (SDS-PAGE), while full length CP is 151 kD (FIG. 6D). An anti-ceruloplasmin western blot confirmed the fragment to be a portion of CP (FIG. 6E). To test the role of proteolytic cleavage in generating the blocking factor, a plasmin-generated fragment of CP (Kingston et al., Proc. Natl. Acad. Sci. USA 74:5377 (1977)) was tested for epitope masking capability (FIG. 6F).

MPO peptide aa447-459 = target: T1, MPO peptide aa447-459 (Homo sapiens, UniProt P05164); test: Serum proteins binding to immobilized MPO peptide aa447-459; conditions: identified by mass spectrometry
T1 construct: made in house; host or cells: chemical synthesis (a peptide core is named only for the ELISA peptides)
Source text: as §1, §2

[2] = tested on: MPO-ANCA IgG (polyclonal); test: Effect of CP on binding of polyclonal MPO-ANCA Ig to native MPO (ELISA); parameters: species or system human; conditions: MPO-ANCA IgG from four patients
Source text: as §2

Row | Molecule | induction of glomerulonephritis (mice) | epitope masking capability [1] | epitope masking capability ([1]; listed as full-length CP) | binding to immobilized MPO aa447-459 peptide (MPO peptide aa447-459) | effect on binding of polyclonal MPO-ANCA Ig to native MPO [2]
1 | PRWNGEKLYQEARKIVGAMV (listed as Homo sapiens) [murine MPO peptide aa409-428] | induces glomerulonephritis in mice |  |  |  | 
2 | B1 |  | did not | did not mask the epitope | identified by mass spectrometry as a binding partner | unaffected
